Test results as given in patent US20170267750A1, “Method of Treating Ovarian and Renal Cancer Using Antibodies Against T Cell Immunoglobulin Domain and Mucin Domain 1 (TIM-1) Antigen” (Celldex Therapeutics, Inc., priority 2005, published 2017).

Target: TIM-1 (T cell, immunoglobulin domain and mucin domain 1), cell membrane-bound (human) (UniProt Q96D42)
Experiment: FACS on polarized human CD4+ Th2 cells, 10 ug/mL mAb, goat anti-human PE (control antibody background)

Chain of TIM-1 (T cell, immunoglobulin domain and mucin domain 1), cell membrane-bound (human) (Q96D42 21-364): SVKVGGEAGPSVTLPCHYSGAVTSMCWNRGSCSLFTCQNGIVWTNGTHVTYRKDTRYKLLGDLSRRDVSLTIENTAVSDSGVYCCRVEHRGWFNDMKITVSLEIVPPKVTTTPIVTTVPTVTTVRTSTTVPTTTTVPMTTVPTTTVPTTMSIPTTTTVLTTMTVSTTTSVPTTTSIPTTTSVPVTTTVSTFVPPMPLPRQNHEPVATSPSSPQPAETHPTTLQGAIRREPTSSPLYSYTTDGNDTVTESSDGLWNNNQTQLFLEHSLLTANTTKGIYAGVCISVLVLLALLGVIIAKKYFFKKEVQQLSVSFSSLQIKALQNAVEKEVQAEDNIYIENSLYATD

isotype matched control mAb PK16.3 (antibody)
Geometric mean of fluorescence intensity: 8.4
